Numbering of substitutions follows the chain as printed. In names and notes the source's numbering stands.
B1: α4-N79C, not HA-tagged (natural protein)
chain: MSGYDRALSIFSPDGHIFQVEYALEAVKRGTCAVGVKGKNCVVLGCERRSTLKLQDTRITPSKVSKIDSHVVLSFSGLCADSRILIEKARVEAQSHRLTLEDPVTVEYLTRYVAGVQQRYTQSGGVRPFGVSTLIAGFDPRDDEPKLYQTEPSGIYSSWSAQTIGRNSKTVREFLEKNYDRKEPPATVEECVKLTVRSLLEVVQTGAKNIEITVVKPDSDIVALSSEEINQYVTQIEQEKQEQQEQDKKKKSNH
B2: α4-C32A C46A N79C (natural protein)
chain: B1 chain with C32A, C46A

Target: Rpt2-L437C (S. cerevisiae, UniProt P40327 1-437, L437C)
Sequence (P40327 whole entry L437C): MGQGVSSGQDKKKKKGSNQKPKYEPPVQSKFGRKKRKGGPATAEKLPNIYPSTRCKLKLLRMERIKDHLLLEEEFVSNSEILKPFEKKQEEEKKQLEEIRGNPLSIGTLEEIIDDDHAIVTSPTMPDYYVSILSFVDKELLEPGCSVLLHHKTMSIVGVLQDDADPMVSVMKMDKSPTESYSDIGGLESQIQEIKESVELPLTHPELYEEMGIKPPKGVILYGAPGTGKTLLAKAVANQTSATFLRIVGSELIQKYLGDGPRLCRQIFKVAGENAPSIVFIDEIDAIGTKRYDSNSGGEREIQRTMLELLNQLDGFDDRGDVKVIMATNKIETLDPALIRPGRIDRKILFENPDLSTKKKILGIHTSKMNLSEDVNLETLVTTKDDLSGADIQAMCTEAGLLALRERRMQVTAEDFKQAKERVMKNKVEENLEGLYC
Assay: cross-linking

Binder	binding result
B1	binds
B2	binds
